Patent US20220009987A9, “HUMAN RESISTIN COMPOSITIONS AND METHODS OF TREATING TLR4-MEDIATED DISEASE AND INFECTION” (THE REGENTS OF THE UNIVERSITY OF CALIFORNIA, priority 2017, published 2022)
“Also recorded” adds a separate entry of the source.

Experiments:
[1] = system: CD14+CD11b+ monocytes; experiment: Competitive resistin/LPS binding assay on human PBMCs (flow cytometry); assay type: cell-based; settings: for LPS binding to CD14+CD11b+ monocytes: pre-incubation before LPS-biotin, on ice
Protocol: Human PBMCs. Human buffy coat was purchased from Zen-bio. Buffy coat was overlaid on top of Histopaque-1077 and spun at 700g at 25° C. with no brake and PBMCs were recovered from the interphase. PBMCs were plated in 96-well plates and stimulated with mammalian-derived human resistin (1 μg/mL, LifeSpan Biosciences) or hRetn N-peptide (1 μg/mL). After 24 hours, ultrapure LPS (100 ng/mL, Invivogen) was added and supernatants recovered for ELISA at 24 hours. Where indicated, cells were incubated for 4 hours with STAT3 (5, 15-DPP, 50 μM) or TBK1 (BX-795, 1 μM) inhibitors prior to hRetn treatment. For the hRetn competitive binding assay, 1×10^6 cells were incubated with recombinant hRetn (0.5 μg), washed in PBS then incubated with 0.5 μg LPS-biotin (incubations were 30 minutes on ice). Cells were washed in FACS buffer, treated with Fc block, and stained with BV605-conjugated streptavidin and α-human primary antibodies: CD14 (clone M5E2), CD11 b (clone M1/70) and MD2/TLR4 (clone HTA125) purchased from Affymetrix.

[2] = system: C57BL/6 mice; experiment: LPS-induced endotoxic shock model with recombinant hRetn treatment; assay type: in vivo, mouse; settings: for survival after LPS injection: 0.5 μg hRetn i.p. prior to LPS, vs PBS control
Text: Mice. Human resistin transgenic mice were generated on a mouse Retn−/− background as previously described in Park et al., 2011, “Inflammatory induction of human resistin causes insulin resistance in endotoxemic mice,” Diabetes 60(3):775-783, the entire content of which is herein incorporated by reference. Briefly, the human resistin gene, along with 21,300 bp upstream and 4,248 bp downstream of the human resistin start site were inserted through a bacterial artificial chromosome (BAC). Genome insertion of hRETN in the two transgenic mouse lines was determined by Dartmouse™, which sequences and analyzes thousands of SNPs throughout the mouse genome. For the endotoxic shock model, mice were injected i.p. with two doses of LPS (Sigma): 0.05 mg/kg LPS followed by 12 mg/kg LPS (females) or 20 mg/kg LPS (males) 12 hours later. Mice were monitored at least twice a day and euthanized according to humane endpoints. For treatment with recombinant resistin, C57BL/6 mice were injected i.p. with PBS or 0.5 μg hRetn (Peprotech). Nippostrongylus brasiliensis life cycle was maintained in Sprague-Dawley rats, as previously described in Jang et al., 2015, “Macrophage-derived human resistin is induced in multiple helminth infections and promotes inflammatory monocytes and increased parasite burden,” PLoS Pathog 11(1):e1004579, the entire content of which is herein incorporated by reference. Mice were anesthetized with isoflurane and injected subcutaneously with 500 L3 larvae. Serum collection was by retro-orbital bleeding and body temperature was measured by rectal thermometer (Braintree Scientific). All animals in the experiment were age-matched (6-8 week old), gender-matched and housed in a specific pathogen free facility.
Vascular Permeability Assay. Evan's blue dye was used to measure vascular permeability. Mice were anesthetized by isoflurane and 200 μL of 0.5% Evan's Blue dye in PBS was injected reto-orbitally. After 10 minutes, mice were euthanized by CO2 and perfused with 20 mL PBS. Tissue was excised, weighed and incubated with 500 μL N, N-dimethylformamide (Sigma) for 24 hours at 55° C. Extracted Evan's blue was measured at 610 nm according to a standard curve.
Binding Assay and Flow Cytometry. Single cell suspension of lung tissue was prepared and hRetn binding was measured as previously described in Jang et al., 2015, supra. Briefly, dissociated lung cells were incubated for 1 hour at 4° C. with 0.5 μg recombinant hResistin (Peprotech) or PBS, followed by 2× wash in FACS buffer, incubation with Fc block (5 μg/mL αCD16/32 and 10 μg/mL purified rat IgG1, 5 min at 4° C.). Cells were stained with biotinylated α-hRetn (Peprotech, 30 min at 4° C.) followed by detection with BV605-conjugated streptavidin (BD) and surface marker antibodies. To collect peritoneal exudate cells (PECs), the peritoneal cavity was washed and PECs recovered in 5 mL ice cold PBS. Surface marker antibodies were: F4/80 (clone A3-1), SiglecF (clone E50-2440), CD4 (clone RM4-5), Ly6C (HK1.4), CD11b (clone M1/70), CD11c (clone N418), Ly6G (clone 1A8), MHCII (clone M5/114.15.2) and CD3e (clone 145-2C11), CD115 (clone AFS98), purchased from Affymetrix, BD Biosciences or Biolegend. Cell populations were determined as follows: peritoneal macrophage (F4/80+CD11b+), neutrophils (Ly6G+CD11b+), eosinophils (SiglecF+CD11c−) and monocyte (Ly6C+CD11b+), alveolar macrophages (F4/80+CD11c+). For flow cytometric analysis, all samples were run on the BD LSRII and analyzed on FlowJo (v10).
Cytokine Quantification. Sandwich ELISAs were performed using capture and biotinylated antibodies for human resistin (Peprotech), IL-10 and TNFα (BD Biosciences) according to manufacturer's instructions. Detection was performed with streptavidin-peroxidase (Jackson ImmunoResearch) and TMB peroxidase substrate (BD Biosciences), followed by addition of 2N H2SO4. Optical density (OD) was captured at 450 nm. Samples were compared to serial-fold dilution of recombinant protein. […]

[3] = target: human TLR4 (Homo sapiens, UniProt O00206); experiment: Pull-down assay with His-tagged human TLR4; assay type: binding; settings: nickel-NTA agarose beads, anti-hRetn blot
human TLR4, sequence (O00206 24-839): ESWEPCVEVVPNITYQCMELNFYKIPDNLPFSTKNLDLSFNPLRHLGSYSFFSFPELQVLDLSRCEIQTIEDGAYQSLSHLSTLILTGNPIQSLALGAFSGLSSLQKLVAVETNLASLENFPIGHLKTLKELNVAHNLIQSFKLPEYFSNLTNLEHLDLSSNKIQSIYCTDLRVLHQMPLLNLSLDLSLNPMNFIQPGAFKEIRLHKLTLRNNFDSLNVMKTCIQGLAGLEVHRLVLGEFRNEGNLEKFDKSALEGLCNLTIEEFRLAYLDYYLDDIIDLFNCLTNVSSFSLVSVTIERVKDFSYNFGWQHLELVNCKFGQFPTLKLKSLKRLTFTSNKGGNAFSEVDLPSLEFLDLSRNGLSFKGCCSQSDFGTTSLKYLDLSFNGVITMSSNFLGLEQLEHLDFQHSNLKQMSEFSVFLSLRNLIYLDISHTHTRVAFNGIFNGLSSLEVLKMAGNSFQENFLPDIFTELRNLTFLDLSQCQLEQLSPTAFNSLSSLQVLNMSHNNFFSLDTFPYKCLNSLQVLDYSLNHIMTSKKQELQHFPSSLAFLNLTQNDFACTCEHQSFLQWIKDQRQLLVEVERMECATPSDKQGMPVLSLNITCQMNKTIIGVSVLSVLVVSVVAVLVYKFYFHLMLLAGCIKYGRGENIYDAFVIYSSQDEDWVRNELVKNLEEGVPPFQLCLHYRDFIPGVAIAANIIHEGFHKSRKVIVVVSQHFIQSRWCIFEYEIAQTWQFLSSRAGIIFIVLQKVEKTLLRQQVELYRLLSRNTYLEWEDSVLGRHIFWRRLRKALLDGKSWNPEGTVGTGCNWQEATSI
Protocol: Pull-down Assay. 1 μg/ml protein His-tagged MBP, human TLR4 and human CAP1 were added to nickel-nitrilotriacetic acid-agarose beads (Invitrogen) in binding buffer (50 mM NaH2PO4, 500 mM NaCl, 10 mM Imidazole, pH 8.0) and mixed for 1 hour at 4° C., followed by washing and 1 h incubation at 4° C. with hRetn (E. coli-derived, Peprotech or 293T cell-derived, LifeSpan Biosciences) in binding buffer. Beads were washed in wash buffer (50 mM NaH2PO4, 500 mM NaCl, 20 mM Imidazole, pH 8.0), and complex protein eluted with elution buffer (50 mM NaH2PO4, 500 mM NaCl, 250 mM Imidazole, pH 6.0). His-MBP, His-TLR4 and His-CAP1 were detected by anti-His antibody (Abcam), and hRetn was detected by anti-hRetn antibody (donated by Mitchell Lazar) by Western Blot. For the N-peptide binding experiment, 1 μg/ml His-tagged human TLR4 with 500 ng/ml N-peptide or 10% TFE control was added to the beads in binding buffer and mixed for 30 min at 4° C., followed by co-immunoprecipitation using 1 μg/ml Flag-hRetn (LifeSpan Biosciences), anti-His or anti-Flag (Sigma).

[4] = peritoneal exudate cells, flow cytometry

B1: hRetn: human resistin protein (hRetn) having an amino acid sequence of SEQ ID NO: 1; recombinant, E. coli-derived or 293T cell-derived (protein, listed as Homo sapiens)
chain: MKALCLLLLPVLGLLVSSKTLCSMEEAINERIQEVAGSLIFRAISSIGLECQSVTSRGDLATCPRGFAVTGCTCGSACGSWDVRAETTCHCQCAGMDWTGARCCRVQP
[1]; flow cytometry
  cell population binding hRetn in human PBMC: CD11b+CD14+ monocytes were the dominant population that bound hRetn
[1]; human PBMC, flow cytometry
  LPS-promoted surface MD2/TLR4 complex formation: abrogated
[1]
  LPS binding to CD14+CD11b+ monocytes: significantly abrogated
[1]; listed as full-length hRetn
  LPS binding to CD14+CD11b+ monocytes: inhibited LPS binding
[2]; listed as recombinant hRetn
  survival after LPS injection: protected C57BL/6 mice against LPS-induced mortality; also recorded: resistant to LPS-induced mortality
[2]; listed as recombinant hRetn protein
  survival after LPS injection: protected against an otherwise lethal dose of LPS
[2]; 6 hours after LPS
  IFNγ level: significant reduction
  IL-6 level: significant reduction
  IL-10 expression: no change
  TNFα level: significant reduction
  lung vascular permeability (Evan's blue dye): significantly reduced LPS-induced vascular permeability
  rectal body temperature (LPS-induced temperature drop): modest protection from the LPS-induced temperature drop
[2]; [4]
  LPS-induced neutrophils in the peritoneal cavity: significantly reduced LPS-induced neutrophils in the peritoneal cavity
  monocytes in the peritoneal cavity: increased monocytes
[3]
  hRetn in pull-down elution with his-TLR4 (Western blot): only present in the elution with his-TLR4
[3]; listed as mammalian-derived hRetn
  hRetn in pull-down elution with his-TLR4 (Western blot): only detected when pulled down with his-TLR4
